The values that follow are results of earlier work, collected in publication PMC4464172.

This data set addresses CAII (Homo sapiens) (UniProt P00918). Briefly: isothermal titration calorimetry. (ITC needs no label: the signal is the heat of the interaction.)

Turning to NBCe1-A (from UniProt Q9Y6R1), the Kd is 160 nM.

For orientation: Kd means the constant that tells how readily two partners part at equilibrium.
